# Laboratory results published in publication PMC4215875.
# Key:
# [1] = target: alpha-HER2 LC ADC (UniProt P01857); settings: pH 7.3; not stated (pH 7.3)
# [2] = target: alpha-HER2-DM1 ADC (in-house T-DM1 analogue) none in sequence; heterogeneous lysine conjugation with SMCC-DM1 (DAR 3.4) (UniProt P01857); settings: pH 7.3; not stated (pH 7.3)
# [3] = target: alpha-HER2 LC tag (trastuzumab with light-chain aldehyde tag); settings: pH 7.3; not stated (pH 7.3)
# [4] = target: alpha-HER2 untagged (trastuzumab) (UniProt P01857); settings: pH 7.3; not stated (pH 7.3)
# [5] = target: alpha-HER2 CT tag (trastuzumab with aldehyde Tag G) (UniProt P01857); settings: pH 7.3; not stated (pH 7.3)
# [6] = target: alpha-HER2 CT ADC (UniProt P01857); settings: pH 7.3; not stated (pH 7.3)
# [7] = target: alpha-HER2 CH1 ADC (UniProt P01857); settings: pH 7.3; not stated (pH 7.3)
# [8] = target: alpha-HER2 CH1 tag (trastuzumab with aldehyde Tag C) (UniProt P01857); settings: pH 7.3; not stated (pH 7.3)
# [9] = target: FcRn (UniProt P55899); experiment: SPR
Substance,Kd [9] [nM],% Bound after 5 s at pH 7.3 [9] [%],also measured
Neonatal Fc receptor (FcRn),,,% Bound after 5 s [1]: 10.9 % bound; % Bound after 5 s [2]: 14.9 % bound; % Bound after 5 s [3]: 11 % bound; % Bound after 5 s [4]: 8.6 % bound; % Bound after 5 s [5]: 9.9 % bound; % Bound after 5 s [6]: 12 % bound; % Bound after 5 s [7]: 9.5 % bound; % Bound after 5 s [8]: 9.9 % bound
α-HER2 CH1 ADC (CH1-tagged trastuzumab conjugated to HIPS-Glu-PEG2-maytansine) (antibody),4.8,,
"α-HER2 CH1 tag (trastuzumab with the aldehyde tag in the CH1 domain, Tag C) (antibody)",5.2,9.9,
α-HER2 CT ADC (CT-tagged trastuzumab conjugated to HIPS-Glu-PEG2-maytansine) (antibody),4.4,12,
"α-HER2 CT tag (trastuzumab with the aldehyde tag at the heavy chain C-terminus, Tag G) (antibody)",5.8,9.9,
α-HER2 LC ADC (LC-tagged trastuzumab conjugated to HIPS-Glu-PEG2-maytansine) (antibody),4.8,10.9,
α-HER2 LC tag (trastuzumab with the aldehyde tag in the light chain) (antibody),4.7,11,
α-HER2 untagged (trastuzumab) (antibody),5.2,,
α-HER2-DM1 ADC (trastuzumab conjugated through conventional lysine chemistry to SMCC-DM1) (antibody),5,14.9,
